To fix the notation:
B1: glmS ribozyme (parent)
chain: AUAAAAGCGCCAGAACUACAGAAAUGUAGUUGACGAGGAGGAGGUUUAUCGAAUUUUCGGCGGAUGCCUCCAAA

± gives the standard error. Fewer inactive variants are shown than the library holds.

What all share (conditions): with glucosamine-6-phosphate
Variants of B1 are the subject of data set [1]. In words: self-cleavage kobs at 40 uM GlcN6P; higher = faster cleavage; RNA array. Summed up: (§1)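 kobs was derived by fitting per-tile medians to one- or two-exponential decays after normalising signals to baseline and to non-cleaving reference variants. Those signals came from barcoded ribozyme variants transcribed in situ by E. coli RNA polymerase on sequenced MiSeq chips, followed through a hybridised Cy3 probe at 37 °C and imaged over ~14 h. Glucosamine-6-phosphate (40 μM to 10 mM) in HEPES/KCl/Mg(OAc)2 buffer was flowed in. Weighted Michaelis–Menten fits across concentrations then gave kcat and KM.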

Variants of B1 are the subject of data set [2]. Kind of data set: self-cleavage kobs at 640 uM GlcN6P; higher = faster cleavage; RNA array. Summed up:
as §1

The variants in data set [3] derive from B1. Kind of data set: self-cleavage kobs at 160 uM GlcN6P; higher = faster cleavage; RNA array. Summed up:
as §1

Variants of B1 are the subject of data set [4]. Kind of data set: self-cleavage kobs at 2500 uM GlcN6P; higher = faster cleavage; RNA array. Summed up: as §1
The variants in data set [5] derive from B1. Kind of data set: self-cleavage kobs at 10000 uM GlcN6P; higher = faster cleavage; RNA array. In outline:
as §1

Consider G13A A33G, for which the “self-cleavage kobs at 40 uM GlcN6P” value with glucosamine-6-phosphate [1] is less than 1e-05 s⁻¹. Moreover, the “self-cleavage kobs at 640 uM GlcN6P” value in the data set with glucosamine-6-phosphate [2] was less than 1e-05 s⁻¹.

Turning to C11A A12C G44C U49A, the “self-cleavage kobs at 40 uM GlcN6P” value with glucosamine-6-phosphate [1] was less than 1e-05 s⁻¹. The “self-cleavage kobs at 160 uM GlcN6P” value in the data set with glucosamine-6-phosphate [3] is less than 1e-05 s⁻¹. For the same variant, the “self-cleavage kobs at 640 uM GlcN6P” value in the data set with glucosamine-6-phosphate [2] was less than 1e-05 s⁻¹. Also, in the data set with glucosamine-6-phosphate [4], the “self-cleavage kobs at 2500 uM GlcN6P” value was less than 1e-05 s⁻¹. In addition, the “self-cleavage kobs at 10000 uM GlcN6P” value in the data set with glucosamine-6-phosphate [5] is less than 1e-05 s⁻¹.

With A15G A48U U57C, the “self-cleavage kobs at 40 uM GlcN6P” value with glucosamine-6-phosphate [1] was less than 1e-05 s⁻¹. Besides, in the data set with glucosamine-6-phosphate [3], the “self-cleavage kobs at 160 uM GlcN6P” value is less than 1e-05 s⁻¹. In addition, the “self-cleavage kobs at 2500 uM GlcN6P” value with glucosamine-6-phosphate [4] was less than 1e-05 s⁻¹. In addition, the “self-cleavage kobs at 10000 uM GlcN6P” value with glucosamine-6-phosphate [5] is less than 1e-05 s⁻¹.

For C11A A15C C50G, in the data set with glucosamine-6-phosphate [1], the “self-cleavage kobs at 40 uM GlcN6P” value worked out at 0.000118 ± 3.3e-05 s⁻¹. In addition, the “self-cleavage kobs at 160 uM GlcN6P” value with glucosamine-6-phosphate [3] stood at 0.000386 ± 0.00017 s⁻¹. Moreover, in the data set with glucosamine-6-phosphate [2], the “self-cleavage kobs at 640 uM GlcN6P” value was 0.000113 ± 3.6e-05 s⁻¹. Also, the “self-cleavage kobs at 2500 uM GlcN6P” value with glucosamine-6-phosphate [4] was found to be 7.75e-05 ± 3.1e-05 s⁻¹. For the same variant, in the data set with glucosamine-6-phosphate [5], the “self-cleavage kobs at 10000 uM GlcN6P” value is 4.96e-05 ± 1.5e-05 s⁻¹.

Regarding A33G G37U U46G A52G G62A, in the data set with glucosamine-6-phosphate [1], the “self-cleavage kobs at 40 uM GlcN6P” value is less than 1e-05 s⁻¹.

In the case of C11G C16A A33U C58G, the “self-cleavage kobs at 40 uM GlcN6P” value with glucosamine-6-phosphate [1] was less than 1e-05 s⁻¹.

For the variant C8U C11U A12C A48G G62A C67U, the “self-cleavage kobs at 40 uM GlcN6P” value with glucosamine-6-phosphate [1] is less than 1e-05 s⁻¹. Further, in the data set with glucosamine-6-phosphate [4], the “self-cleavage kobs at 2500 uM GlcN6P” value was less than 1e-05 s⁻¹. In addition, the “self-cleavage kobs at 10000 uM GlcN6P” value in the data set with glucosamine-6-phosphate [5] was less than 1e-05 s⁻¹.

Turning to A6U C16U U47A G63U, in the data set with glucosamine-6-phosphate [1], the “self-cleavage kobs at 40 uM GlcN6P” value is less than 1e-05 s⁻¹. For the same variant, the “self-cleavage kobs at 10000 uM GlcN6P” value with glucosamine-6-phosphate [5] is less than 1e-05 s⁻¹.

As to A14G G37A G63U, in the data set with glucosamine-6-phosphate [1], the “self-cleavage kobs at 40 uM GlcN6P” value was less than 1e-05 s⁻¹. Besides, in the data set with glucosamine-6-phosphate [5], the “self-cleavage kobs at 10000 uM GlcN6P” value is less than 1e-05 s⁻¹.

Consider C50G C70A, for which the “self-cleavage kobs at 40 uM GlcN6P” value with glucosamine-6-phosphate [1] is 8.32e-05 ± 1.7e-05 s⁻¹. The “self-cleavage kobs at 160 uM GlcN6P” value in the data set with glucosamine-6-phosphate [3] was 0.000173 ± 5.4e-05 s⁻¹. For the same variant, in the data set with glucosamine-6-phosphate [2], the “self-cleavage kobs at 640 uM GlcN6P” value was found to be 0.000163 ± 4.1e-05 s⁻¹. Further, the “self-cleavage kobs at 2500 uM GlcN6P” value in the data set with glucosamine-6-phosphate [4] was 0.000238 ± 5.8e-05 s⁻¹. Further, the “self-cleavage kobs at 10000 uM GlcN6P” value with glucosamine-6-phosphate [5] amounted to 7.91e-05 ± 1.3e-05 s⁻¹.

As for A6C C61G, in the data set with glucosamine-6-phosphate [1], the “self-cleavage kobs at 40 uM GlcN6P” value is less than 1e-05 s⁻¹. In addition, in the data set with glucosamine-6-phosphate [2], the “self-cleavage kobs at 640 uM GlcN6P” value is less than 1e-05 s⁻¹. In addition, the “self-cleavage kobs at 10000 uM GlcN6P” value in the data set with glucosamine-6-phosphate [5] is less than 1e-05 s⁻¹.

Turning to A52C G60U U69C, the “self-cleavage kobs at 40 uM GlcN6P” value with glucosamine-6-phosphate [1] was less than 1e-05 s⁻¹.

As for A12U G40U G41C, the “self-cleavage kobs at 40 uM GlcN6P” value with glucosamine-6-phosphate [1] was less than 1e-05 s⁻¹.

Regarding G41A G60U, the “self-cleavage kobs at 40 uM GlcN6P” value with glucosamine-6-phosphate [1] is less than 1e-05 s⁻¹. The “self-cleavage kobs at 640 uM GlcN6P” value with glucosamine-6-phosphate [2] is less than 1e-05 s⁻¹. Besides, the “self-cleavage kobs at 10000 uM GlcN6P” value with glucosamine-6-phosphate [5] is less than 1e-05 s⁻¹.

Turning to C58G G60C, in the data set with glucosamine-6-phosphate [1], the “self-cleavage kobs at 40 uM GlcN6P” value is less than 1e-05 s⁻¹. Also, the “self-cleavage kobs at 160 uM GlcN6P” value with glucosamine-6-phosphate [3] was less than 1e-05 s⁻¹. In addition, the “self-cleavage kobs at 640 uM GlcN6P” value in the data set with glucosamine-6-phosphate [2] is less than 1e-05 s⁻¹. For the same variant, in the data set with glucosamine-6-phosphate [4], the “self-cleavage kobs at 2500 uM GlcN6P” value was less than 1e-05 s⁻¹. Moreover, in the data set with glucosamine-6-phosphate [5], the “self-cleavage kobs at 10000 uM GlcN6P” value was less than 1e-05 s⁻¹.

For the variant C11U A15C A48U G60A, the “self-cleavage kobs at 40 uM GlcN6P” value with glucosamine-6-phosphate [1] was less than 1e-05 s⁻¹. In addition, the “self-cleavage kobs at 10000 uM GlcN6P” value with glucosamine-6-phosphate [5] is less than 1e-05 s⁻¹.

Turning to C50G U65C C67U, in the data set with glucosamine-6-phosphate [1], the “self-cleavage kobs at 40 uM GlcN6P” value turned out to be 6.84e-05 ± 1.4e-05 s⁻¹. Also, the “self-cleavage kobs at 2500 uM GlcN6P” value with glucosamine-6-phosphate [4] amounted to 0.000106 ± 2e-05 s⁻¹. Moreover, the “self-cleavage kobs at 10000 uM GlcN6P” value in the data set with glucosamine-6-phosphate [5] is 9.96e-05 ± 1.4e-05 s⁻¹.

Turning to G7U C8A, the “self-cleavage kobs at 40 uM GlcN6P” value in the data set with glucosamine-6-phosphate [1] is less than 1e-05 s⁻¹. In addition, the “self-cleavage kobs at 160 uM GlcN6P” value in the data set with glucosamine-6-phosphate [3] is less than 1e-05 s⁻¹. Also, the “self-cleavage kobs at 2500 uM GlcN6P” value with glucosamine-6-phosphate [4] is less than 1e-05 s⁻¹.

In the case of C8G C34U A42U, the “self-cleavage kobs at 40 uM GlcN6P” value in the data set with glucosamine-6-phosphate [1] was less than 1e-05 s⁻¹.

As for C11U A36G, the “self-cleavage kobs at 40 uM GlcN6P” value with glucosamine-6-phosphate [1] was less than 1e-05 s⁻¹. In addition, in the data set with glucosamine-6-phosphate [3], the “self-cleavage kobs at 160 uM GlcN6P” value is less than 1e-05 s⁻¹. The “self-cleavage kobs at 640 uM GlcN6P” value in the data set with glucosamine-6-phosphate [2] is less than 1e-05 s⁻¹. Also, the “self-cleavage kobs at 2500 uM GlcN6P” value in the data set with glucosamine-6-phosphate [4] is less than 1e-05 s⁻¹.

As to A12G A14U G38A, in the data set with glucosamine-6-phosphate [1], the “self-cleavage kobs at 40 uM GlcN6P” value is less than 1e-05 s⁻¹. Further, the “self-cleavage kobs at 10000 uM GlcN6P” value with glucosamine-6-phosphate [5] is less than 1e-05 s⁻¹.

Consider C34G, for which the “self-cleavage kobs at 40 uM GlcN6P” value with glucosamine-6-phosphate [1] was less than 1e-05 s⁻¹. The “self-cleavage kobs at 160 uM GlcN6P” value in the data set with glucosamine-6-phosphate [3] was less than 1e-05 s⁻¹. Besides, the “self-cleavage kobs at 640 uM GlcN6P” value with glucosamine-6-phosphate [2] is less than 1e-05 s⁻¹. Moreover, the “self-cleavage kobs at 2500 uM GlcN6P” value in the data set with glucosamine-6-phosphate [4] is less than 1e-05 s⁻¹. The “self-cleavage kobs at 10000 uM GlcN6P” value with glucosamine-6-phosphate [5] was less than 1e-05 s⁻¹.

The values above are taken from the supplement of paper PMC7125110.
